Common to all, as to experiment: ITC
Experiment [1] concerns the target T1, OPTN(26–119) E50K (human, UniProt Q96CV9 26-119, E50K).
The target of experiment [2] is T1, OPTN(26–119) E50K. The source holds these as a separate data set.
Target sequence in this assay (Q96CV9 26-119 E50K): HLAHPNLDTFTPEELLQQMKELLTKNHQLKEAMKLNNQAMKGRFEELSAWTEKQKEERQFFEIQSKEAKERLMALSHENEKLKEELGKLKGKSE
The target of experiment [3] is T2, TBK1 CTD(E696K) (human, UniProt Q9UHD2 677-729, E696K).
T2 sequence: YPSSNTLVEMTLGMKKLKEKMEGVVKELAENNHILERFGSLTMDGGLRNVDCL

Experiment [4] concerns the target T3, TBK1 CTD V700Q (human, UniProt Q9UHD2 677-729, V700Q).
T3 sequence: T2 sequence with K20E, V24Q

The target of experiment [5] is T2, TBK1 CTD(E696K). This is another data set of the same source.
Experiment [6] addresses T3, TBK1 CTD V700Q. This is another data set of the same source.

Our source for the Kd values is publication PMC5027247 (2016).

Numbering of substitutions follows the chain as printed. Where two headings read alike, the source gives them in different places.

B1: TBK1 CTD (residues 677–729) (domain or fragment)
chain: T2 sequence with K20E
Regarding B1, the Kd in the experiment with OPTN(26–119) E50K [1] and in the experiment with OPTN(26–119) E50K [2] was 100 nM each time.

For SSDNMQHAYWELKREMSNLHLVTQVQAELLRKLKTSTAIK (domain or fragment) [NAP1 TBD (residues 215–254)], the dissociation constant Kd with TBK1 CTD(E696K) [3] was 660 nM; in the experiment with TBK1 CTD V700Q [4], 6.06 µM; in the experiment with TBK1 CTD(E696K) [5], 660 nM; with TBK1 CTD V700Q [6], 6.06 µM.
